Biological target: MglA^+ of Thermus thermophilus (Thermus thermophilus)
Test: fluorescence polarisation

Substance “MglB of Thermus thermophilus (natural protein)” has a fold higher affinity for MglA^+/mGppNHp than for MglA^+/GDP of 60 fold.
